Assay results taken from patent US20250152746A1, “BASE EDITING OF ANGPTL3 AND METHODS OF USING SAME FOR TREATMENT OF DISEASE” (Verve Therapeutics, Inc., priority 2020, published 2025).
In the oligonucleotide strings, read from the 5' end, every base follows the letter of its sugar. An asterisk marks phosphorothioate; unmarked linkages are phosphodiester. Other units and linkages are bracketed, terminal groups are in braces. A string of capitals states the bases alone. m = 2'-O-methyl; r = 2'-OH (RNA)

Columns and labels:
PCSK9 gene [1] = test: PCSK9 gRNA/SpCas9 editing in primary human hepatocytes (Tables 2, 4); type: cell-based; details: SpCas9 mRNA MS002 1:1 by weight; for Human Primary Hepatocyte Editing % 100: 100 ng/RNA/mL; for Human Primary Hepatocyte Editing % 500: 500 ng/RNA/mL; for Human Primary Hepatocyte Editing % 2500: 2500 ng/RNA/mL
Outline: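 Editing at the PCSK9 site quantified by NGS of PCR amplicons from genomic DNA. Input: SpCas9 mRNA with gRNA, 1:1 by weight, transfected into primary human hepatocytes at 2500, 500 or 100 ng RNA/mL (tracr-modified guides at 2500, 1250, 500, 250 ng/mL).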

PCSK9 gene [2] = test: PCSK9 gRNA/SpCas9 editing in primary cynomolgus hepatocytes (Tables 2, 22); type: cell-based, cynomolgus monkey; details: SpCas9 mRNA MS002 1:1 by weight; for Cyno Primary Hepatocyte Editing % 100: 100 ng/RNA/mL; for Cyno Primary Hepatocyte Editing % 500: 500 ng/RNA/mL; for Cyno Primary Hepatocyte Editing % 2500: 2500 ng/RNA/mL

Molecule	Human Primary Hepatocyte Editing % 100 (PCSK9 gene [1]) [%]	Human Primary Hepatocyte Editing % 500 (PCSK9 gene [1]) [%]	Human Primary Hepatocyte Editing % 2500 (PCSK9 gene [1]) [%]	Cyno Primary Hepatocyte Editing % 100 (PCSK9 gene [2]) [%]	Cyno Primary Hepatocyte Editing % 500 (PCSK9 gene [2]) [%]	Cyno Primary Hepatocyte Editing % 2500 (PCSK9 gene [2]) [%]
GA174: PCSK9 gRNA; protospacer GGATCTTGGTGAGGTATCCC (SEQ ID NO: 168) (nucleic acid, sugars from the 5' end m3 r94 m3, linkages s3 o93 s3 (s phosphorothioate, o phosphodiester), T or U not given here) guide: GGAUCUUGGUGAGGUAUCCCGUUUUAGAGCUAGAAAUAGCAAGUUAAAAUAAGGCUAGUCCGUUAUCAACUUGAAAAAGUGGCACCGAGUCGGUGCUUUU	1.18	5.24	14.74	1.60	4.88	18.65
GA183: PCSK9 gRNA; protospacer CTACGTGGTGGTGCTGAAGG (SEQ ID NO: 177) (nucleic acid) guide: mC*mU*mA*rCrGrUrGrGrUrGrGrUrGrCrUrGrArArGrGrGrUrUrUrUrArGrArGrCrUrArGrArArArUrArGrCrArArGrUrUrArArArArUrArArGrGrCrUrArGrUrCrCrGrUrUrArUrCrArArCrUrUrGrArArArArArGrUrGrGrCrArCrCrGrArGrUrCrGrGrUrGrCrU*mU*mU*mU	2.21	9.89	32.35	2.87	15.99	39.56
GA177: PCSK9 gRNA; protospacer GGTCGCCACTCATCTTCACC (SEQ ID NO: 171) (nucleic acid, sugars from the 5' end m3 r94 m3, linkages s3 o93 s3 (s phosphorothioate, o phosphodiester), T or U not given here) guide: GGUCGCCACUCAUCUUCACCGUUUUAGAGCUAGAAAUAGCAAGUUAAAAUAAGGCUAGUCCGUUAUCAACUUGAAAAAGUGGCACCGAGUCGGUGCUUUU	0.65	2.67	12.57	0.38	4.68	15.91
GA179: PCSK9 gRNA; protospacer GAGTGGCGACCTGCTGGAGC (SEQ ID NO: 173) (nucleic acid) guide: mG*mA*mG*rUrGrGrCrGrArCrCrUrGrCrUrGrGrArGrCrGrUrUrUrUrArGrArGrCrUrArGrArArArUrArGrCrArArGrUrUrArArArArUrArArGrGrCrUrArGrUrCrCrGrUrUrArUrCrArArCrUrUrGrArArArArArGrUrGrGrCrArCrCrGrArGrUrCrGrGrUrGrCrU*mU*mU*mU	1.29	6	21.87	1.06	4.21	12.94
GA173: PCSK9 gRNA; protospacer CTTGGTGAGGTATCCCCGGC (SEQ ID NO: 167) (nucleic acid, sugars from the 5' end m3 r94 m3, linkages s3 o93 s3 (s phosphorothioate, o phosphodiester), T or U not given here) guide: CUUGGUGAGGUAUCCCCGGCGUUUUAGAGCUAGAAAUAGCAAGUUAAAAUAAGGCUAGUCCGUUAUCAACUUGAAAAAGUGGCACCGAGUCGGUGCUUUU	0.69	3.94	23.38	2.06	8.70	35.03
GA178: PCSK9 gRNA; protospacer CTCCTTCAGCACCACCACGT (SEQ ID NO: 172) (nucleic acid) guide: mC*mU*mC*rCrUrUrCrArGrCrArCrCrArCrCrArCrGrUrGrUrUrUrUrArGrArGrCrUrArGrArArArUrArGrCrArArGrUrUrArArArArUrArArGrGrCrUrArGrUrCrCrGrUrUrArUrCrArArCrUrUrGrArArArArArGrUrGrGrCrArCrCrGrArGrUrCrGrGrUrGrCrU*mU*mU*mU	1.26	5.43	18.29	2.21	5.78	25.22
GA176: PCSK9 gRNA; protospacer AGCACCACCACGTAGGTGCC (SEQ ID NO: 170) (nucleic acid, sugars from the 5' end m3 r94 m3, linkages s3 o93 s3 (s phosphorothioate, o phosphodiester), T or U not given here) guide: AGCACCACCACGUAGGUGCCGUUUUAGAGCUAGAAAUAGCAAGUUAAAAUAAGGCUAGUCCGUUAUCAACUUGAAAAAGUGGCACCGAGUCGGUGCUUUU	0.36	1.26	4.98	2.11	8.11	22.65
GA181: PCSK9 gRNA; protospacer GGCTTCCTGGTGAAGATGAG (SEQ ID NO: 175) (nucleic acid) guide: mG*mG*mC*rUrUrCrCrUrGrGrUrGrArArGrArUrGrArGrGrUrUrUrUrArGrArGrCrUrArGrArArArUrArGrCrArArGrUrUrArArArArUrArArGrGrCrUrArGrUrCrCrGrUrUrArUrCrArArCrUrUrGrArArArArArGrUrGrGrCrArCrCrGrArGrUrCrGrGrUrGrCrU*mU*mU*mU	28.87			3.66	15.43	45.12
GA182: PCSK9 gRNA; protospacer CACCTACGTGGTGGTGCTGA (SEQ ID NO: 176) (nucleic acid) guide: mC*mA*mC*rCrUrArCrGrUrGrGrUrGrGrUrGrCrUrGrArGrUrUrUrUrArGrArGrCrUrArGrArArArUrArGrCrArArGrUrUrArArArArUrArArGrGrCrUrArGrUrCrCrGrUrUrArUrCrArArCrUrUrGrArArArArArGrUrGrGrCrArCrCrGrArGrUrCrGrGrUrGrCrU*mU*mU*mU	0.95	4.49	17.44	1.55	6.14	22.89
GA175: PCSK9 gRNA; protospacer GAAGATGAGTGGCGACCTGC (SEQ ID NO: 169) (nucleic acid, sugars from the 5' end m3 r94 m3, linkages s3 o93 s3 (s phosphorothioate, o phosphodiester), T or U not given here) guide: GAAGAUGAGUGGCGACCUGCGUUUUAGAGCUAGAAAUAGCAAGUUAAAAUAAGGCUAGUCCGUUAUCAACUUGAAAAAGUGGCACCGAGUCGGUGCUUUU	1.55	7.53	24.81	1.45	12.37	44.77
GA184: PCSK9 gRNA; protospacer ATGGAAGACATGCAGGATCT (SEQ ID NO: 178) (nucleic acid) guide: mA*mU*mG*rGrArArGrArCrArUrGrCrArGrGrArUrCrUrGrUrUrUrUrArGrArGrCrUrArGrArArArUrArGrCrArArGrUrUrArArArArUrArArGrGrCrUrArGrUrCrCrGrUrUrArUrCrArArCrUrUrGrArArArArArGrUrGrGrCrArCrCrGrArGrUrCrGrGrUrGrCrU*mU*mU*mU	2.65	8.29	29.55	2.90	10.54	31.87
GA186: PCSK9 gRNA; protospacer CTCATCTTCACCAGGAAGCC (SEQ ID NO: 180) (nucleic acid) guide: mC*mU*mC*rArUrCrUrUrCrArCrCrArGrGrArArGrCrCrGrUrUrUrUrArGrArGrCrUrArGrArArArUrArGrCrArArGrUrUrArArArArUrArArGrGrCrUrArGrUrCrCrGrUrUrArUrCrArArCrUrUrGrArArArArArGrUrGrGrCrArCrCrGrArGrUrCrGrGrUrGrCrU*mU*mU*mU	0.79	3.57	12.01	1.96	7.59	33.48
GA185: PCSK9 gRNA; protospacer AGACATGCAGGATCTTGGTG (SEQ ID NO: 179) (nucleic acid) guide: mA*mG*mA*rCrArUrGrCrArGrGrArUrCrUrUrGrGrUrGrGrUrUrUrUrArGrArGrCrUrArGrArArArUrArGrCrArArGrUrUrArArArArUrArArGrGrCrUrArGrUrCrCrGrUrUrArUrCrArArCrUrUrGrArArArArArGrUrGrGrCrArCrCrGrArGrUrCrGrGrUrGrCrU*mU*mU*mU	1.6	10.91	27.98	1.14	7.75	20.29
GA180: PCSK9 gRNA; protospacer GCGCACTGCCCGCCGCCTGC (SEQ ID NO: 174) (nucleic acid) guide: mG*mC*mG*rCrArCrUrGrCrCrCrGrCrCrGrCrCrUrGrCrGrUrUrUrUrArGrArGrCrUrArGrArArArUrArGrCrArArGrUrUrArArArArUrArArGrGrCrUrArGrUrCrCrGrUrUrArUrCrArArCrUrUrGrArArArArArGrUrGrGrCrArCrCrGrArGrUrCrGrGrUrGrCrU*mU*mU*mU	0.22	2.22	17.16	0.91	2.45	14.12
